Laboratory results: article PMC6598250

Target: unfolded precursor form of maltose binding protein (preMBP) (E. coli)
Test: ITC; 120 uM SecB or SecB_(T10A) titrated into 20 uM preMBP; 25 °C; KPB buffer pH 7.4, 100 mM; MicroCal PEAQ-ITC; triplicate

Row | Kd | dH | stoichiometry N | Substance
1 | 61.7 µM | -6.18 kJ/mol | 3.08 | SecB chaperone, wild type (from UniProt P0AG86 1-153) (natural protein)
2 | 5.2 µM | -8.32 kJ/mol | 4.99 | SecB_(T10A) (from UniProt P0AG86 1-153) (natural protein)
